For assay [1], the target named is T1, full-length mouse PGC-1 (aa 1-797) (mouse, UniProt O70343 1-797, [35S]methionine-labeled in the pull-down assays).
T1 construct: In vitro reticulocyte translation product in the pull-downs; the same full-length protein was expressed from pSV-SPORT in the transcription assays; also called reticulocyte-translated PGC-1
T1 sequence: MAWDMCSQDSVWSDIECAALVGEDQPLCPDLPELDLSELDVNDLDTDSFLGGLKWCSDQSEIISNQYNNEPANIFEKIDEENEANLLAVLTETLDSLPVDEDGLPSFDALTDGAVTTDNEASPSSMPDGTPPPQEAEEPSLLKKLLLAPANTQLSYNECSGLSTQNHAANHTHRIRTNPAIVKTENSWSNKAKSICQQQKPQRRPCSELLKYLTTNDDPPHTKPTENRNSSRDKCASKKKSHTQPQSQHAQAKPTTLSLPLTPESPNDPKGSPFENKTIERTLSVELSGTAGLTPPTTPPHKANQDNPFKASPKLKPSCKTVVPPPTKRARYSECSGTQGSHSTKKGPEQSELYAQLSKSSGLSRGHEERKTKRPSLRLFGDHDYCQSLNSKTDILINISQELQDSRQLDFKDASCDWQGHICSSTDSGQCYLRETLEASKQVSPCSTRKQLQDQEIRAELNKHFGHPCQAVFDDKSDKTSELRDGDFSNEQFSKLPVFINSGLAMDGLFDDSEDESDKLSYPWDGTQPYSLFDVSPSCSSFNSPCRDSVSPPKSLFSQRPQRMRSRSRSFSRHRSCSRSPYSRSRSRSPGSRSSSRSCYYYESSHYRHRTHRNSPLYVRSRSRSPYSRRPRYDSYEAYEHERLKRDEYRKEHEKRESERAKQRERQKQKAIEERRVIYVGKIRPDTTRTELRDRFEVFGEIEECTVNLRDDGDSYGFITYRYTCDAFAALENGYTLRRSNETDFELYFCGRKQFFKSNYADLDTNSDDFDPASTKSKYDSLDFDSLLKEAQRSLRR
Kind of assay: pull-down of in vitro-translated PGC-1 with GST-PPARγ deletion. From the text:
Most of the nuclear hormone receptor coactivators identified to date interact with the C-terminal AF-2 domain, which is responsible for ligand-dependent transcriptional activation.

For assay [2], the target named is T2, GST-PPARγ fusion protein (immobilized PPARγ) (UniProt P37238 1-505).
T2 construct: also called FST-PPARγ fusion protein; bacterially expressed PPARγ immobilized on beads; not shown: glutathione S-transferase (GST) moiety; printed as 'FST'
T2 sequence (looked up): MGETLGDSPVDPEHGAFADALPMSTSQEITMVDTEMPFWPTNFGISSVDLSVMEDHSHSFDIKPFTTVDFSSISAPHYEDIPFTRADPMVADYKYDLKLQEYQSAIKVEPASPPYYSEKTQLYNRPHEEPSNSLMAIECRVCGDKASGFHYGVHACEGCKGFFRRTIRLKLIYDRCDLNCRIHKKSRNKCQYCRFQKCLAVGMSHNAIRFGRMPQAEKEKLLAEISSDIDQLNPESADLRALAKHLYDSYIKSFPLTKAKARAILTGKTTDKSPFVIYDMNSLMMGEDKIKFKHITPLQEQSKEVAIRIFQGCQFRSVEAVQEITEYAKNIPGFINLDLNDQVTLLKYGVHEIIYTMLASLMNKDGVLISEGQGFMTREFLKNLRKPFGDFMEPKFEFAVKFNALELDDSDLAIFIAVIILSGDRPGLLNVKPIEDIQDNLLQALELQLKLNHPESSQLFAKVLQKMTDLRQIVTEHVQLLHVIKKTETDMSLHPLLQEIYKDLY
Kind of assay: pull-down of in vitro-translated 35S-labeled PGC-1 deletion with immobilized GST-PPARγ. The source says: These were then translated into vitro with an [³⁵S]methionine-label. One microliter of each in vitro translation reaction was resolved by SDS-PAGE and autoradigraphed.

B1: GST fusion of PPARγ 228-505 (receptor, mouse, UniProt P37238 228-505, looked up)
chain: DIDQLNPESADLRALAKHLYDSYIKSFPLTKAKARAILTGKTTDKSPFVIYDMNSLMMGEDKIKFKHITPLQEQSKEVAIRIFQGCQFRSVEAVQEITEYAKNIPGFINLDLNDQVTLLKYGVHEIIYTMLASLMNKDGVLISEGQGFMTREFLKNLRKPFGDFMEPKFEFAVKFNALELDDSDLAIFIAVIILSGDRPGLLNVKPIEDIQDNLLQALELQLKLNHPESSQLFAKVLQKMTDLRQIVTEHVQLLHVIKKTETDMSLHPLLQEIYKDLY
notes: not shown: glutathione S-transferase (GST) moiety of pGEX 5X2
Regarding B1, the binding result in assay [1] was “no binding”.

B2: PGC-1 1-292 (other)
chain: MAWDMCSQDSVWSDIECAALVGEDQPLCPDLPELDLSELDVNDLDTDSFLGGLKWCSDQSEIISNQYNNEPANIFEKIDEENEANLLAVLTETLDSLPVDEDGLPSFDALTDGAVTTDNEASPSSMPDGTPPPQEAEEPSLLKKLLLAPANTQLSYNECSGLSTQNHAANHTHRIRTNPAIVKTENSWSNKAKSICQQQKPQRRPCSELLKYLTTNDDPPHTKPTENRNSSRDKCASKKKSHTQPQSQHAQAKPTTLSLPLTPESPNDPKGSPFENKTIERTLSVELSGTAG
modifications: [35S]methionine-labeled
notes: In vitro translated; still contains the LXXLL motif (aa 142-146)
B2: in assay [2], the binding result is given as “no binding”.

The record behind these values is patent publication US20030229204A1 (Dana-Farber, published 2003).
